{"source": "paper PMC3229090", "about": "(Biochemistry, 2011)", "key": {"[1]": {"experiment": "Reverse phase C18 HPLC elution as measure of hydrophobicity", "assay_type": "physicochemical", "details": "reverse phase C18, 30 min gradient from 99:1 A/B to 70:30 A/B, water/acetonitrile + 0.05% TFA, flow rate 1 ml/min"}, "HeLa cells": {"system": "HeLa cells", "experiment": "HeLa proliferation assay", "assay_type": "cell-based, Human", "details": "pH 6.0 and 7.4, treatment 3 hrs, data not shown"}, "[2]": {"details": "measured previously; ref [20]; cited from earlier work"}}, "note": "Ends that are not written are not given here.", "data": [{"substance": "phallacidin (AWLVDCP; also: cyclic peptide, R1 = H, R2 = COOH)", "values": [{"measurement": "HPLC elution time of phallotoxins", "setting": "[1]", "result": 30.3, "unit": "min"}, {"measurement": "Antiproliferative effect at either pH", "setting": "HeLa cells", "result": "do not demonstrate an antiproliferative effect"}]}, {"substance": "phalloidin-rhodamine", "values": [{"measurement": "Log P of phalloidin-rhodamine", "setting": "[2]", "result": -0.05}]}]}
